Experimental data published in patent US20200331991A1 (Teva, published 2020).
Where a chain is given by its changes, count along the chain named. Where no end group is shown, it is not given here.

T1: human α-CGRP K35A (19-37) (human, not fully specified)
T1 peptide: SGGVVKNNFVPTNVGSAAF-NH2

T2: human α-CGRP 26-37 (human)
T2 peptide: NFVPTNVGSKAF-NH2

T3: human α-CGRP K35M (19-37) (human, not fully specified)
T3 peptide: SGGVVKNNFVPTNVGSMAF-NH2

T4: rat α-CGRP (1-37) (rat, C-terminal amide; N-terminal biotin when captured on the SA chip)
T4 construct: also called rat α (1-37); α-rat
T4 peptide: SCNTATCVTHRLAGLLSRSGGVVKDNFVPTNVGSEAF

T5: rat β-CGRP (1-37) (rat, C-terminal amide; N-terminal biotin when captured on the SA chip)
T5 construct: also called rat β (1-37)
T5 peptide: T4 peptide with E35K

T6: human α-CGRP P29A (19-37) (human)
T6 peptide: SGGVVKNNFVATNVGSKAF-NH2

T7: human β-CGRP (1-37) (human, not fully specified; C-terminal amide; N-terminal biotin when captured on the SA chip)
T7 construct: also called human β (1-37)
T7 peptide: T4 peptide with S1A, V22M, D25S, E35K

T8: human α-CGRP 8-37 (human, C-terminal amide)
T8 peptide: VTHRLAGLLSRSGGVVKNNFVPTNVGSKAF

T9: human α-CGRP K35E (19-37) (human, not fully specified)
T9 peptide: SGGVVKNNFVPTNVGSEAF-NH2

T10: human α-CGRP 1-36-COOH (human, free C-terminus (not amidated))
T10 construct: also called 1-36 (not amidated at the C-terminus)
T10 peptide: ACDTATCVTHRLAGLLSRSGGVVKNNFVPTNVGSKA

B1: human α-CGRP 1-13-COOH (peptide)
peptide: ACDTATCVTHRLA-OH
modifications: ends and bridges not checked
B2: Human adrenomedullin (1-52) (peptide)
peptide: YRQSMNNFQGLRSFGCRFGTCTVQKLAHQIYQFTDKDKDNVAPRSKISPQGY-NH2
modifications: ends and bridges not checked
B3: Human calcitonin (1-32) (peptide)
peptide: CGNLSTCMLGTYTQDFNKFHTFPQTAIGVGAP-NH2
modifications: ends and bridges not checked
B4: antibody G1 Fab fragment (Fab, V domains shown)
VH: EVQLVESGGGLVQPGGSLRLSCAASGFTFSNYWISWVRQAPGKGLEWVAEIRSESDASATHYAEAVKGRFTISRDNAKNSLYLQMNSLRAEDTAVYYCLAYFDYGLAIQNYWGQGTLVTVSS
VL: EIVLTQSPATLSLSPGERATLSCKASKRVTTYVSWYQQKPGQAPRLLIYGASNRYLGIPARFSGSGSGTDFTLTISSLEPEDFAVYYCSQSYNYPYTFGQGTKLEIK
B5: 19-36 CONH2 (peptide)
peptide: SGGVVKNNFVPTNVGSKA-NH2
notes: also called human α-CGRP 19-36, amidated at the C-terminus
B6: Human amylin (1-37) (peptide)
peptide: KCNTATCATQRLANFLVHSSNNFGAILSSTNVGSNTY-NH2
modifications: ends and bridges not checked
B7: human α-CGRP 1-19-COOH (peptide)
peptide: ACDTATCVTHRLAGLLSRS-OH
modifications: ends and bridges not checked

Tests used:
antibody G1 Fab fragment = target: B4; test: Biacore competition: G1 Fab 50 nM pre-incubated 1 h with 10 uM peptide, then over biotinylated human α-CGRP on SA chip
Excerpt: (§1) Y axis represents percentage of binding blocked by the presence of the competing peptide compared with the binding in the absence of the competing peptide.
(§2) All these peptides are amidated at the C-terminus.

[1] = target: T1, human α-CGRP K35A (19-37); test: Biacore: 50 nM G1 Fab with 10 uM competing peptide in solution, over human α-CGRP on chip
Excerpt: as §1, §2

human α-CGRP 26-37 = target: T2, human α-CGRP 26-37; test: as above
Excerpt: as §1, §2

[2] = target: T3, human α-CGRP K35M (19-37); test: as above
Excerpt: as §1, §2

rat α-CGRP (1-37) = target: T4, rat α-CGRP (1-37); test: as above
Excerpt: as §1, §2

rat β-CGRP (1-37) = target: T5, rat β-CGRP (1-37); test: as above
Excerpt: as §1, §2

[3] = target: T6, human α-CGRP P29A (19-37); test: as above
Excerpt: as §1, §2

human β-CGRP (1-37) = target: T7, human β-CGRP (1-37); test: as above
Excerpt: as §1, §2

human α-CGRP 8-37 = target: T8, human α-CGRP 8-37; test: as above
Excerpt: as §1, §2

[4] = target: T9, human α-CGRP K35E (19-37); test: as above
Excerpt: as §1, §2

human α-CGRP 1-36-COOH = target: T10, human α-CGRP 1-36-COOH; test: as above
human α-CGRP 1-19-COOH = target: B7; test: Biacore peptide competition (FIG. 6)
Excerpt: as §1, §2

Human amylin (1-37) = target: B6; test: Biacore peptide competition (FIG. 6)
Excerpt: as §1, §2

human α-CGRP 1-13-COOH = target: B1; test: Biacore peptide competition (FIG. 6)
Excerpt: as §1, §2

Human calcitonin (1-32) = target: B3; test: Biacore peptide competition (FIG. 6)
Excerpt: as §1, §2

[5] = target: B2; test: Biacore peptide competition (FIG. 6)
Excerpt: as §1, §2

human α-CGRP 19-36-COOH = human α-CGRP 19-36-COOH (human, Table 4: free C-terminus (COOH); paragraph 375 calls it amidated at the C-terminus); test: Biacore peptide competition (FIG. 6)
Excerpt: as §1, §2

## B1
Antibody G1 Fab fragment
  binding result: no binding (tested: 10 uM)

## B2
Antibody G1 Fab fragment
  binding result: no binding (tested: 10 uM)

## B3
Antibody G1 Fab fragment
  binding result: no binding (tested: 10 uM)

## B4
[1]
  % of binding blocked by competing peptide: 100%
Human α-CGRP 26-37
  % of binding blocked by competing peptide: 100%
[2]
  % of binding blocked by competing peptide: 100%
Rat α-CGRP (1-37)
  % of binding blocked by competing peptide: 100%
Rat β-CGRP (1-37)
  % of binding blocked by competing peptide: 100%
[3]
  % of binding blocked by competing peptide: 100%
Human β-CGRP (1-37)
  % of binding blocked by competing peptide: 100%
Human α-CGRP 8-37
  % of binding blocked by competing peptide: 100%
[4]
  % of binding blocked by competing peptide: 100%
Human α-CGRP 1-36-COOH
  % of binding blocked by competing peptide: ~40%
Human α-CGRP 1-19-COOH
  binding result: no binding (tested: 10 uM peptide in 50 nM G1 Fab)
Human amylin (1-37)
  binding result: no binding (tested: 10 uM peptide in 50 nM G1 Fab)
Human α-CGRP 1-13-COOH
  binding result: no binding (tested: 10 uM peptide in 50 nM G1 Fab)
Human calcitonin (1-32)
  binding result: no binding (tested: 10 uM peptide in 50 nM G1 Fab)
[5]
  binding result: no binding (tested: 10 uM peptide in 50 nM G1 Fab)
Human α-CGRP 19-36-COOH
  binding result: no binding (tested: 10 uM peptide in 50 nM G1 Fab)

## B5
Antibody G1 Fab fragment
  % Binding blocked: 0.6%
  binding result: no binding (tested: 10 uM)

## B6
Antibody G1 Fab fragment
  binding result: no binding (tested: 10 uM)

## B7
Antibody G1 Fab fragment
  binding result: no binding (tested: 10 uM)
